Consider one substance from paper PMC4350885.

The assay concerns the target Deinococcus radiodurans DNA polymerase III β subunit (β-clamp), short version of 362 amino acids (Deinococcus radiodurans strain R1). In words: SEC; Superdex 75 10/30, purified Drβ-clamp, size and tertiary structure analysis. (Size exclusion chromatography separates by hydrodynamic size, large species first.)

A word on the stoichiometry N: it is a count of units in the complex or per binding partner.

Turning to “Deinococcus radiodurans DNA polymerase III β subunit (β-clamp), short version of 362 amino acids (natural protein)”, the stoichiometry N came to 2.
